The record followed here is patent EP3176583A2 (TLA Targeted Immunotherapies AB, dated 2017).

The target in one test is hCCR7 (human) (UniProt P32248). Kind of test: cell-based or functional assay.
The target of a further test is T1, hCCR9 (human, UniProt P51686 1-369).
T1 sequence (looked up): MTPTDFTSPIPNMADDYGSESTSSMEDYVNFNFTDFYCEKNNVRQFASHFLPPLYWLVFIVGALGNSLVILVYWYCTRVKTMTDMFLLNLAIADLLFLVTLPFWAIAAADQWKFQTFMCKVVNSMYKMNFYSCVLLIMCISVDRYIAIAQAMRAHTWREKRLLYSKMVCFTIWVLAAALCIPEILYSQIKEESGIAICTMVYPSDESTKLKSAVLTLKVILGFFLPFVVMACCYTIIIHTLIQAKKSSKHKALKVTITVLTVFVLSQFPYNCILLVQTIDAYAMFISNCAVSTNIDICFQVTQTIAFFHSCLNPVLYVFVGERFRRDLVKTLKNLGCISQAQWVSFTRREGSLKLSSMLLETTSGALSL
Kind of test: cell-based or functional assay.

Bridge positions count the residues as written; N and C are the ends. Square brackets hold non-standard residues; d marks the D form. Side chains are listed from the residue outwards. * marks the point of attachment. Biotin = O=C1N[C@H]2[C@H](CS[C@H]2CCCCC(=O)*)N1; pGlu = O=C1CC[C@@H](C(=O)O)N1; Nle = CCCC[C@H](N)C(=O)O; AEEA = NCCOCCOCC(=O)O

hCCR7 (human), sequence (P32248 25-378 limits assumed): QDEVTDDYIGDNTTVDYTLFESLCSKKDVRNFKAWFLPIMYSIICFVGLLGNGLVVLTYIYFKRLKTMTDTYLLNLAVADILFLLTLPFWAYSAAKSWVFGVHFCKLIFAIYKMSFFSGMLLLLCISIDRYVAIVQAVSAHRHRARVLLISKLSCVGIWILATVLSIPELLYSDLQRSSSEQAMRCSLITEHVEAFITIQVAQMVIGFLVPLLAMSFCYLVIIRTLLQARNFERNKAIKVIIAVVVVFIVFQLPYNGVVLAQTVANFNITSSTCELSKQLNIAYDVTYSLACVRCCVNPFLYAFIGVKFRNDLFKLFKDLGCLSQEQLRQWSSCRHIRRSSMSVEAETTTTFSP

“biotinMIP-3β (human MIP-3β/CCL19 residues 1-77 with an additional Lys78 derivatised with Biotin) (from UniProt Q99731 22-98) (ligand)” had an EC50, agonist activity in an Aequorin assay with hCCR7 (human) of 11 nM. Regarding “native TECK (from UniProt O15444 24-150) (ligand)”, the EC50, agonist activity in an Aequorin assay with hCCR9 was found to be 67.9 nM. Molecule “recombinant native MIP-3β (from UniProt Q99731 22-98) (ligand)” had an EC50, agonist activity in an Aequorin assay in the test with hCCR7 (human) of 1.6 nM.

B1: TECK-Biotin-Nle (truncated human TECK/CCL25, residues 1-74 of the mature protein, Met to Nleu substitution, derivatised at Lys72 with PEG-Biotin) (ligand)
chain: [pGlu]GVFEDCCLAYHYPIGWAVLRRAWTYRIQEVSGSCNLPAAIFYLPKRHRKVCGNPKSREVQRA[Nle]KLLDARNK([AEEA-Biotin])VF
modifications: disulfide 7-35, 8-52; also: TFA salt
For the molecule B1, in the test with hCCR9, the “EC50, agonist activity in an Aequorin assay” value worked out at 63.6 nM.
